Legend:
Experiment in all cases: cell-based or functional assay
human CD86 = biological target: T1, human CD86 (human)
T1 chain: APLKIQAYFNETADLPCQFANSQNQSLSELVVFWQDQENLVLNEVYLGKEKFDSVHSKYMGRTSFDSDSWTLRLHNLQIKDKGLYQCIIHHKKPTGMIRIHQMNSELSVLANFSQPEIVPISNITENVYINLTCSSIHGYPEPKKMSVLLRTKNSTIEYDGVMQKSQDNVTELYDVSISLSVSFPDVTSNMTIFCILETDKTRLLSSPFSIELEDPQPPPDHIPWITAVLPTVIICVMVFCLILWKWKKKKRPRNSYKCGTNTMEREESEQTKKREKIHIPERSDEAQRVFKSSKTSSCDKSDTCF

TIGIT = biological target: T2, TIGIT (human, UniProt Q495A1)
T2 sequence: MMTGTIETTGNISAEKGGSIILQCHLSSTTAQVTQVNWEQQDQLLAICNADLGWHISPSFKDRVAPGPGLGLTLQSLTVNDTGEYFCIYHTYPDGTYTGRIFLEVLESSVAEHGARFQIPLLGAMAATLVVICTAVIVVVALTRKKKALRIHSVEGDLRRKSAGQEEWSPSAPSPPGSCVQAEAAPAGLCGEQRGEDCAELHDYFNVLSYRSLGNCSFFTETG

CD2 = CD2 (human, UniProt P06729)
PD-1 = PD-1 (human, UniProt Q15116)

Row | Binder | 100 nM IFN-gamma (pg/mL), SEB assay (human CD86) | 100 nM IFN-gamma (pg/mL), SEB assay (TIGIT) | 100 nM IFN-gamma (pg/mL), SEB assay (CD2) | 100 nM IFN-gamma (pg/mL), SEB assay (PD-1)
1 | CD155 665-CTLA-4 3037-Fc (Fc fusion) WPPPGTGDVVVQAPTQVSGFLGDSVTLPCYLQVPNMEVTHVSQLTWARHGESGSMAVFHQTQGPWYAESKRLEFVAARLGAELRNASLRVFGLRAEDEGNYTCQFVTFPQRSRSVDIWLRVLGGGGSGGGGSGGGGSKAMHVAQPAVVFASSHGIASFVCEYASPWKATEVRVTVLRQADSQVTEVCAATYMTGNELTFLDDSICTGTSSGNQVNLTIQGLRAMDTGLYICKVEQMYPPPYLLGIGNGTQIYVIDPEPCPDSDGSGGGGSEPKSSDKTHTCPPCPAPEAEGAPSVFLFPPKPKDTLMISRTPEVTCVVVDVSHEDPEVKFNWYVDGVEVHNAKTKPREEQYNSTYRVVSVLTVLHQDWLNGKEYKCKVSNKALPAPIEKTISKAKGQPREPQVYTLPPSRDELTKNQVSLTCLVKGFYPSDIAVEWESNGQPENNYKTTPPVLDSDGSFFLYSKLTVDKSRWQQGNVFSCSVMHEALHNHYTQKSLSLSPG | 4310 pg/mL | 4310 pg/mL | – | –
2 | CTLA-4 3060-CD155 665-Fc (Fc fusion) KAMHVAQPAVVFASSHGIASFVCEYASPWKATEVRVTVLRQADSQVTEVCAATYMTGNELTFLDDSICTGTSSGNQVNLTIQGLRAMDTGLYICKVEQMYPPPYLLGIGNGTQIYVIDPEPCPDSDGGGGSGGGGSGGGGSWPPPGTGDVVVQAPTQVSGFLGDSVTLPCYLQVPNMEVTHVSQLTWARHGESGSMAVFHQTQGPWYAESKRLEFVAARLGAELRNASLRVFGLRAEDEGNYTCQFVTFPQRSRSVDIWLRVLGSGGGGSEPKSSDKTHTCPPCPAPEAEGAPSVFLFPPKPKDTLMISRTPEVTCVVVDVSHEDPEVKFNWYVDGVEVHNAKTKPREEQYNSTYRVVSVLTVLHQDWLNGKEYKCKVSNKALPAPIEKTISKAKGQPREPQVYTLPPSRDELTKNQVSLTCLVKGFYPSDIAVEWESNGQPENNYKTTPPVLDSDGSFFLYSKLTVDKSRWQQGNVFSCSVMHEALHNHYTQKSLSLSPG | 1900 pg/mL | 1900 pg/mL | – | –
3 | CD155 665-CD58 3650-Fc (Fc fusion) WPPPGTGDVVVQAPTQVSGFLGDSVTLPCYLQVPNMEVTHVSQLTWARHGESGSMAVFHQTQGPWYAESKRLEFVAARLGAELRNASLRVFGLRAEDEGNYTCQFVTFPQRSRSVDIWLRVLGGGGSGGGGSGGGGSSQQIYGVVYGNVTFHVPSNVPLKEVLWKKQKDKVAELENSEFRAFSSFKNRVYLDTVSGSLTIYNLTSSDEDEYEMESPNITDTMKFFLYVLESGSGGGGSEPKSSDKTHTCPPCPAPEAEGAPSVFLFPPKPKDTLMISRTPEVTCVVVDVSHEDPEVKFNWYVDGVEVHNAKTKPREEQYNSTYRVVSVLTVLHQDWLNGKEYKCKVSNKALPAPIEKTISKAKGQPREPQVYTLPPSRDELTKNQVSLTCLVKGFYPSDIAVEWESNGQPENNYKTTPPVLDSDGSFFLYSKLTVDKSRWQQGNVFSCSVMHEALHNHYTQKSLSLSPG | – | 5850 pg/mL | 5850 pg/mL | –
4 | CD58 3650-PD-L1 303-PD-L1 303-CD58 3650 (other) SQQIYGVVYGNVTFHVPSNVPLKEVLWKKQKDKVAELENSEFRAFSSFKNRVYLDTVSGSLTIYNLTSSDEDEYEMESPNITDTMKFFLYVLESGGGGSGGGGSGGGGSFTVTVPKDLYVVEYGSNMTIECKFPVEKQLDLAALIVYWEMEGKDIIQFVHGEEDQKAQHSSYRQRARLLKDQLSLGNAALQITDVKLQDAGVYRCMISYGGGADYKRITVKVNAGGGGSGGGGSGGGGSFTVTVPKDLYVVEYGSNMTIECKFPVEKQLDLAALIVYWEMEGKDIIQFVHGEEDQKAQHSSYRQRARLLKDQLSLGNAALQITDVKLQDAGVYRCMISYGGGADYKRITVKVNAGSGGSGGGGSGGGGSSQQIYGVVYGNVTFHVPSNVPLKEVLWKKQKDKVAELENSEFRAFSSFKNRVYLDTVSGSLTIYNLTSSDEDEYEMESPNITDTMKFFLYVLESGSGGGGSDYKDDDDKHHHHHH | – | – | 16200 pg/mL | 16200 pg/mL
5 | PD-L1 303-PD-L1 303-CD58 3650-CD58 3650 (other) FTVTVPKDLYVVEYGSNMTIECKFPVEKQLDLAALIVYWEMEGKDIIQFVHGEEDQKAQHSSYRQRARLLKDQLSLGNAALQITDVKLQDAGVYRCMISYGGGADYKRITVKVNAGGGGSGGGGSGGGGSFTVTVPKDLYVVEYGSNMTIECKFPVEKQLDLAALIVYWEMEGKDIIQFVHGEEDQKAQHSSYRQRARLLKDQLSLGNAALQITDVKLQDAGVYRCMISYGGGADYKRITVKVNAGGGGSGGGGSGGGGSSQQIYGVVYGNVTFHVPSNVPLKEVLWKKQKDKVAELENSEFRAFSSFKNRVYLDTVSGSLTIYNLTSSDEDEYEMESPNITDTMKFFLYVLESGSGGSGGGGSGGGGSSQQIYGVVYGNVTFHVPSNVPLKEVLWKKQKDKVAELENSEFRAFSSFKNRVYLDTVSGSLTIYNLTSSDEDEYEMESPNITDTMKFFLYVLESGSGGGGSDYKDDDDKHHHHHH | – | – | 8620 pg/mL | 8620 pg/mL
6 | CD58 3650-CD155 665-Fc (Fc fusion) SQQIYGVVYGNVTFHVPSNVPLKEVLWKKQKDKVAELENSEFRAFSSFKNRVYLDTVSGSLTIYNLTSSDEDEYEMESPNITDTMKFFLYVLESGGGGSGGGGSGGGGSWPPPGTGDVVVQAPTQVSGFLGDSVTLPCYLQVPNMEVTHVSQLTWARHGESGSMAVFHQTQGPWYAESKRLEFVAARLGAELRNASLRVFGLRAEDEGNYTCQFVTFPQRSRSVDIWLRVLGSGGGGSEPKSSDKTHTCPPCPAPEAEGAPSVFLFPPKPKDTLMISRTPEVTCVVVDVSHEDPEVKFNWYVDGVEVHNAKTKPREEQYNSTYRVVSVLTVLHQDWLNGKEYKCKVSNKALPAPIEKTISKAKGQPREPQVYTLPPSRDELTKNQVSLTCLVKGFYPSDIAVEWESNGQPENNYKTTPPVLDSDGSFFLYSKLTVDKSRWQQGNVFSCSVMHEALHNHYTQKSLSLSPG | – | 6490 pg/mL | 6490 pg/mL | –
7 | PD-L1 303-CD155 665-CTLA-4 3037-Fc (Fc fusion) FTVTVPKDLYVVEYGSNMTIECKFPVEKQLDLAALIVYWEMEGKDIIQFVHGEEDQKAQHSSYRQRARLLKDQLSLGNAALQITDVKLQDAGVYRCMISYGGGADYKRITVKVNAGGGGSGGGGSGGGGSWPPPGTGDVVVQAPTQVSGFLGDSVTLPCYLQVPNMEVTHVSQLTWARHGESGSMAVFHQTQGPWYAESKRLEFVAARLGAELRNASLRVFGLRAEDEGNYTCQFVTFPQRSRSVDIWLRVLGGGGSGGGGSGGGGSKAMHVAQPAVVFASSHGIASFVCEYASPWKATEVRVTVLRQADSQVTEVCAATYMTGNELTFLDDSICTGTSSGNQVNLTIQGLRAMDTGLYICKVEQMYPPPYLLGIGNGTQIYVIDPEPCPDSDGSGGGGSEPKSSDKTHTCPPCPAPEAEGAPSVFLFPPKPKDTLMISRTPEVTCVVVDVSHEDPEVKFNWYVDGVEVHNAKTKPREEQYNSTYRVVSVLTVLHQDWLNGKEYKCKVSNKALPAPIEKTISKAKGQPREPQVYTLPPSRDELTKNQVSLTCLVKGFYPSDIAVEWESNGQPENNYKTTPPVLDSDGSFFLYSKLTVDKSRWQQGNVFSCSVMHEALHNHYTQKSLSLSPG | 7350 pg/mL | 7350 pg/mL | – | 7350 pg/mL
8 | CD58 3650-CD58 3650-PD-L1 303-PD-L1 303 (other) SQQIYGVVYGNVTFHVPSNVPLKEVLWKKQKDKVAELENSEFRAFSSFKNRVYLDTVSGSLTIYNLTSSDEDEYEMESPNITDTMKFFLYVLESGGGGSGGGGSGGGGSSQQIYGVVYGNVTFHVPSNVPLKEVLWKKQKDKVAELENSEFRAFSSFKNRVYLDTVSGSLTIYNLTSSDEDEYEMESPNITDTMKFFLYVLESGGGGSGGGGSGGGGSFTVTVPKDLYVVEYGSNMTIECKFPVEKQLDLAALIVYWEMEGKDIIQFVHGEEDQKAQHSSYRQRARLLKDQLSLGNAALQITDVKLQDAGVYRCMISYGGGADYKRITVKVNAGSGGSGGGGSGGGGSFTVTVPKDLYVVEYGSNMTIECKFPVEKQLDLAALIVYWEMEGKDIIQFVHGEEDQKAQHSSYRQRARLLKDQLSLGNAALQITDVKLQDAGVYRCMISYGGGADYKRITVKVNAGSGGGGSDYKDDDDKHHHHHH | – | – | 6030 pg/mL | 6030 pg/mL
9 | CD 155 665 G4S FLAGHis (ligand) WPPPGTGDVVVQAPTQVSGFLGDSVTLPCYLQVPNMEVTHVSQLTWARHGESGSMAVFHQTQGPWYAESKRLEFVAARLGAELRNASLRVFGLRAEDEGNYTCQFVTFPQRSRSVDIWLRVLGGGGSDYKDDDDKHHHHHH | – | 10300 pg/mL | – | –

Reference: patent US20250163127A1 (published 2025)
